From PMC10897159, “Structural insights into the activation mechanism of antimicrobial GBP1” (The EMBO Journal, 2024) come the findings set out here.

Series [1] addresses GBP1 M139R, non-farnesylated (human) (UniProt P32455). Nature of the series: SEC; analytical SEC (Superdex 200 5/150), 20 µM protein with 200 µM GDP, 300 µM AlCl3, 10 mM NaF (GDP•AlFx); 50 mM Tris-HCl pH 7.9, 150 mM NaCl, 5 mM MgCl2. On the technique in general: SEC sorts molecules by how far they enter the pores of the column.
In series [2] the target is T1, human guanylate-binding protein 1 (GBP1), wild-type, non-farnesylated (human), P32455.
T1 chain: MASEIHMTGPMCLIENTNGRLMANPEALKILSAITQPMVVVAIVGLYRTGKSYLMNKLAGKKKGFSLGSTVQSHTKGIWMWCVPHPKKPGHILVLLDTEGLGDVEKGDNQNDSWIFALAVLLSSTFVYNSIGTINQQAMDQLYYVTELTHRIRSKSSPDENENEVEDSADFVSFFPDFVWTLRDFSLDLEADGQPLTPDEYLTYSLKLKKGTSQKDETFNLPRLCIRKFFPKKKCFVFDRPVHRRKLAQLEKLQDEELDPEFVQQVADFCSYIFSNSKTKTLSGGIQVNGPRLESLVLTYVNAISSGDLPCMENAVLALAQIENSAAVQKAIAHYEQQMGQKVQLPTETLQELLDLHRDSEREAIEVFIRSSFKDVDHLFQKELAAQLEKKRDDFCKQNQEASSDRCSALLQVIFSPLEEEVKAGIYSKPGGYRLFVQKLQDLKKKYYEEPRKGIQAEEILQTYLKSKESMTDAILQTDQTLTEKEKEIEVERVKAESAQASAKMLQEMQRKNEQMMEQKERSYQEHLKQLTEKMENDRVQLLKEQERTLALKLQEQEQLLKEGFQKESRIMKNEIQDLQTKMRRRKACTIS
Kind of series: cross-linking; BS3 at 20-times molar excess, 20 µM protein, with 200 µM GDP, 300 µM AlCl3, 10 mM NaF (GDP•AlFx); 50 mM HEPES, 150 mM NaCl, 5 mM MgCl2; SDS-PAGE. The note with it: remark: other sources report otherwise.

Series [3] deals with T1, human guanylate-binding protein 1 …. Nature of the series: specific GTPase activity against protein concentration (HPLC), quadratic fit; apparent Kd of dimer formation; non-farnesylated GBP1, 1 mM GTP, 37 °C, 50 mM Tris-HCl pH 7.9, 150 mM NaCl, 5 mM MgCl2; dimer to monomers. The settings on record: remark: other sources report otherwise.
Series [4] addresses T2, human guanylate-binding protein 1 (GBP1), wild-type, farnesylated (human), P32455.
T2 chain: T1 chain
Kind of series: cryo-EM structure; single particle analysis of polymeric disks; 5 µM farnesylated GBP1 with GDP•AlFx for 20-30 min, no membranes; ~37 Å. The settings on record: remark: other sources report otherwise.

Series [5] deals with the molecule itself. Kind of series: SEC; analytical SEC (Superdex 200 5/150), 20 µM protein with 200 µM GDP, 300 µM AlCl3, 10 mM NaF (GDP•AlFx); 50 mM Tris-HCl pH 7.9, 150 mM NaCl, 5 mM MgCl2.
Series [6] concerns the molecule itself. Kind of series: specific GDPase activity against protein concentration (HPLC), quadratic fit; apparent Kd of dimer formation; isolated LG domains, 1 mM GDP, 37 °C, 50 mM Tris-HCl pH 7.9, 150 mM NaCl, 5 mM MgCl2; dimer to monomers.

As usually defined, the stoichiometry N is the number of molecules, sites or subunits per partner or assembly.

Take “GBP1 M139R, non-farnesylated (from UniProt P32455 1-592) (natural protein)”: the stoichiometry N in series [1] is 2.

B1: human guanylate-binding protein 1 (GBP1), wild-type, non-farnesylated, P32455 1-592 (natural protein)
chain: T1 chain
The molecule B1 showed a stoichiometry N in series [2] of 2. Further, the Kd in series [3] is 1.9 µM.

B2: human guanylate-binding protein 1 (GBP1), wild-type, farnesylated, P32455 1-592 (natural protein)
chain: T1 chain
modifications: here or on the partner: farnesyl moiety at the C-terminal CaaX box motif; farnesyl moiety at the C-terminal CaaX box motif
In series [4], B2 came in with a subunits (dimeric building blocks) in a planar polymeric disk of 30 subunits.

B3: isolated LG domain of GBP1, wild-type (domain or fragment, human, UniProt P32455 1-317, looked up)
chain: MASEIHMTGPMCLIENTNGRLMANPEALKILSAITQPMVVVAIVGLYRTGKSYLMNKLAGKKKGFSLGSTVQSHTKGIWMWCVPHPKKPGHILVLLDTEGLGDVEKGDNQNDSWIFALAVLLSSTFVYNSIGTINQQAMDQLYYVTELTHRIRSKSSPDENENEVEDSADFVSFFPDFVWTLRDFSLDLEADGQPLTPDEYLTYSLKLKKGTSQKDETFNLPRLCIRKFFPKKKCFVFDRPVHRRKLAQLEKLQDEELDPEFVQQVADFCSYIFSNSKTKTLSGGIQVNGPRLESLVLTYVNAISSGDLPCMENAVL
notes: large GTPase (LG) domain of GBP1, human; stop codon in place of A318 (primer A318*); also called wild-type LG domain; WT; source: E. coli, pQE-80L, purified (Ni Sepharose HP, Superdex 200)
Take B3: the “stoichiometry N” value in series [5] was determined as 2. Further, in series [6], the Kd was found to be 110 µM.
